US20240181013A1, “POEGMA COPOLYMER CONJUGATES AND METHODS OF TREATING DISEASES” (Duke University, priority 2021, published 2024)

B1: OVA-PEG: ovalbumin conjugated to ~10 kDa PEG via activated carbonate-amine conjugation (conjugate, UniProt P01012 2-386, looked up)
Ovalbumin: GSIGAASMEFCFDVFKELKVHHANENIFYCPIAIMSALAMVYLGAKDSTRTQINKVVRFDKLPGFGDSIEAQCGTSVNVHSSLRDILNQITKPNDVYSFSLASRLYAEERYPILPEYLQCVKELYRGGLEPINFQTAADQARELINSWVESQTNGIIRNVLQPSSVDSQTAMVLVNAIVFKGLWEKAFKDEDTQAMPFRVTEQESKPVQMMYQIGLFRVASMASEKMKILELPFASGTMSMLVLLPDEVSGLEQLESIINFEKLTEWTSSNVMEERKIKVYLPRMKMEEKYNLTSVLMAMGITDVFSSSANLSGISSAESLKISQAVHAAHAEINEAGREVVGSAEAGVDAASVSEEFRADHPFLFCIKHIATNAVLFFGRCVSP
modifications: 10 kDa PEG conjugate
B2: OVA-POEGMA: ovalbumin conjugated to ~10 kDa EG3 POEGMA via activated carbonate-amine conjugation (conjugate, UniProt P01012 2-386, looked up)
Ovalbumin: B1 Ovalbumin
modifications: 10 kDa EG3 POEGMA conjugate

Columns and labels:
C57BL6/J mice = details: mouse, in vivo
Experimental: (§1) Immunogenicity. Immunogenicity of POEGMA was tested and compared to that of PEG in three sets of immunogenicity experiments. […] In the second set of experiments, mice were injected with OVA (Invivogen), OVA-PEG10K, and OVA-POEGMA10K at 9.6 nmol kg^−1. In the final set, OVA, OVA-PEG10K, and OVA-POEGMA10K were emulsified in an equal volume of sterile and endotoxin-free adjuvant (Invivogen) and then administrated into 7-week-old C57BL/6J mice (n=10) at 9.6 nmol kg^−1. Complete Freund's adjuvant (CFA) was used for the first injection, while incomplete Freund's adjuvant (IFA) was the adjuvant of choice for the rest of the injections. In all experimental sets, an equal injection volume of PBS (or PBS emulsified in CFA or IFA) was used as a negative control. All drugs were administrated into mice every 17 days three times (Day 0, 17, and 34). […]
(§2) Analysis of anti-drug antibodies (ADA), ADAs were analyzed using a Luminex multiplex immunoassay (LMI) according to the manufacturer's instructions with minor modifications. […]
(§3) In a typical LMI assay, 50 μl of the diluted plasma samples (n=3) were transferred to a black, round-bottom 96-well-plate (Corning). […] Finally, magnetic beads were suspended in 100 μl of assay buffer, followed by measuring mean fluorescence signal intensity (MFI) using MAGPIX (Luminex) instrument. […]

C57BL/6J mice = details: mouse, in vivo, sc
Experimental: as §1, §2, §3

Row | Molecule | PEG-specific IgM titer, higher than with exendin-PEG (C57BL6/J mice) | anti-POEGMA response with Freund's adjuvant (C57BL/6J mice)
1 | B1 | ~60 fold | –
2 | B2 | – | only a weak IgM response disappearing after the first injection
